{"source": "patent US5550213", "molecular_target": "Urokinase plasminogen activator (Homo sapiens (Human)) (UniProt P00749)", "test": "inhibition of UK activity; Ki by non-linear regression (Enzfitter) of free enzyme versus inhibitor concentration", "data": [{"substance": "mutant with arginine at the P1 site of OM3TKY (designed binder)", "values": [{"measurement": "Ki", "result": 1790, "unit": "nM"}]}]}
